According to patent publication US20210338733A1 (University of Pennsylvania, published 2021):

Target: T1, TnMUC1 (aberrantly glycosylated Tn glycoform of MUC1) as expressed by tumor cells (human, UniProt P15941 24-1255, Tn (GalNAca1-O-Ser/Thr) glycans; sites not stated)
T1 construct: whole, on cells; One molecule is used for all TnMUC1-positive target cells; In the IHC of breast tumor tissue the staining was cytoplasmic and/or membranous; also called TnMUC1 antigen; TnMUC1+ target cells (Jurkat E6-1, Hs766T, MCF7, breast cancer cell lines and tissue)
Experiment: immunohistochemistry on breast cancer tissue

T1 sequence (P15941 24-1255): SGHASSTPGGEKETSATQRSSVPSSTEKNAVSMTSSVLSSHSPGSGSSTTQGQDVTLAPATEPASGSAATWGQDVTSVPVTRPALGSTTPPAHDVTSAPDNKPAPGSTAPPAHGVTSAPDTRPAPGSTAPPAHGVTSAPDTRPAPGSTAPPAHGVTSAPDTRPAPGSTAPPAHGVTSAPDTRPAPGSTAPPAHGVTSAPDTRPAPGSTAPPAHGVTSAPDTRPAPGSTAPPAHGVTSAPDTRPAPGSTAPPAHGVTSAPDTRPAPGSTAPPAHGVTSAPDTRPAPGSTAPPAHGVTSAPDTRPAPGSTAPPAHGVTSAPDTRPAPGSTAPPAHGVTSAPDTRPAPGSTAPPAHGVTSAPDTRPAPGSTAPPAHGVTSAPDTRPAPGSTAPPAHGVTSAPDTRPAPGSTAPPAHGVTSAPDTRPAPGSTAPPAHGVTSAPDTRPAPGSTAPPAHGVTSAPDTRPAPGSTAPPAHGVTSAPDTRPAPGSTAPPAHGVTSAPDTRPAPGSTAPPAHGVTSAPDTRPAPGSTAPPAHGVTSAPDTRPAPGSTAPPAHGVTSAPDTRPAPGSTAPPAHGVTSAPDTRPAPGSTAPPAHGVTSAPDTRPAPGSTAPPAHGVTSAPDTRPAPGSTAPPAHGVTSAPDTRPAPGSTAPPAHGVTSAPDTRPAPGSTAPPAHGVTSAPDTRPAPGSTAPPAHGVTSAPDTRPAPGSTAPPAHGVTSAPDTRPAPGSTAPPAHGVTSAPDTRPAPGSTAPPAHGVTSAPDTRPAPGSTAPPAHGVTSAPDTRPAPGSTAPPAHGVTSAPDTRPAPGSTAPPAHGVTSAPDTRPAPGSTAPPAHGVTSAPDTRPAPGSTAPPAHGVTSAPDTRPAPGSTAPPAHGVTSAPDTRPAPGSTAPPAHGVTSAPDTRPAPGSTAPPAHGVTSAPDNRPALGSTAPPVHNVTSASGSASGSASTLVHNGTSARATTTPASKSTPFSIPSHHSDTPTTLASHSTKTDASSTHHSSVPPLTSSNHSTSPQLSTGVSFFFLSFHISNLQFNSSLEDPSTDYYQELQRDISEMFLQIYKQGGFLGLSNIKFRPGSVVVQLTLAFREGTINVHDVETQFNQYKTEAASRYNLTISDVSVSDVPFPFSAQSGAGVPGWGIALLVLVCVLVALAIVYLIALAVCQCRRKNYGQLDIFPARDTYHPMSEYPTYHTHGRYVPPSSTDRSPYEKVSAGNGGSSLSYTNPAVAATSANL

B1: Anti-TnMUC1 murine monoclonal antibody clone 5E5 (antibody, V domains shown)
VH: QVQLQQSDAELVKPGSSVKISCKASGYTFTDHAIHWVKQKPEQGLEWIGHFSPGNTDIKYNDKFKGKATLTVDRSSSTAYMQLNSLTSEDSAVYFCKTSTFFFDYWGQGTTLTVSS
VL: ELVMTQSPSSLTVTAGEKVTMICKSSQSLLNSGDQKNYLTWYQQKPGQPPKLLIFWASTRESGVPDRFTGSGSGTDFTLTISSVQAEDLAVYYCQNDYSYPLTFGAGTKLELK
notes: also called 5E5 mAb; mAb 5E5
binding result: binds
